Target: human wild-type D3R (HASS-FLAG-EGFP-3C protease-D3R in pcDNA4/TO) (human) (UniProt P35462)
UniProt P35462, sequence (P35462 whole entry): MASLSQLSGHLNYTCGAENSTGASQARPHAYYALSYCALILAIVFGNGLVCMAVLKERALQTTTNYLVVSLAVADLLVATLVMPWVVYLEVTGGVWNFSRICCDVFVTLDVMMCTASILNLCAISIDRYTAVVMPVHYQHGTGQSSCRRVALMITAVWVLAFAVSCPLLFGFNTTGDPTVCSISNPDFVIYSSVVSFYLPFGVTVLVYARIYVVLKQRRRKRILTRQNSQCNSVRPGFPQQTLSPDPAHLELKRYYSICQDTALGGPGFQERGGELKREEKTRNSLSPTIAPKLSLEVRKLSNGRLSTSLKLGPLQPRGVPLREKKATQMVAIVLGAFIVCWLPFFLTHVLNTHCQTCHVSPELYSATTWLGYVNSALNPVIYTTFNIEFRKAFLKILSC

Substance: GαOA-RLuc8 (from UniProt P09471 1-354) (natural protein)
- potency of FOB02-04A at D3R in the TRUPATH BRET2 assay in HEK293T cells, GOA against Gi1: 135 fold
